The values that follow come from the nanobody polyreactivity screen of Harvey et al. (2022).

The data set can be described thus: yeast display, Sf9 membrane polyspecificity reagent, FACS + sequencing; frameworks hold sequencing errors. The method in brief: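 Galactose-induced (36–48 hours) yeast carrying a synthetic nanobody display library were exposed to 10% biotinylated, detergent-solubilized Sf9 membrane reagent at 4 °C for 1 hour. FACS followed streptavidin microbead enrichment, using low and high (top ~1%) gates for expression (anti-HA) and reagent binding (streptavidin). Colony PCR, MiSeq 2 × 250 sequencing and CDR-length filtering followed. Labels for polyreactivity reflect the gate of origin.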
With “QVHLVESVGGLVQAGGSLRLSCAASGSTFIYYAMVRYRQAPGKERELVASISRSGGSTYYADSVKGRFTISRDNAKNTVYLQMNSLKPEDTAFYYCARAYRSSFNYWGQGTQVTVSS”, the “polyreactivity (PSR sort gate)” value is given as “high polyreactivity”. Take “QVHLVESVGGLVQAGGSLRLSCASSGFTFPYYAMGWYRQQPGKERELVAAISWIGDSTYYADSVKGRFTISRDNAKNTVYLQMNSLKPEDTAVYYCAAGYKWSIPNRDYDYWGQGTQVTVSS”: the “polyreactivity (PSR sort gate)” value is given as “low polyreactivity”. The value for “QVHLVETGGGLVQAGGSLRLSCAASGFIFIWYALGGYRQAPGKERELVAAITSDGGRTYYADSVKGRFTISRDNAKNSVYFQMNSLKPEDTAVYYCYAVSSATKYEYWGQGTQVTVSS” was “high polyreactivity”; that for “QVHLVETGGGLVQAGGSLRLSCAASGYIFGWYAMGWYRQAPGKERELVAAITRGGSTNYADSVKGRFTISRDNAKNTVYLLMNSLKPEDTAVYYCNTEDWAVGSPEVEYEYDYWGQGTQVTVSS” was “low polyreactivity”; that for “QVHLVETVGGLVKAGGSLRLSFAASGSIFTSNDMGWYRQEPGKERELVAAISSGGRTYYADSVKGRFTISRDNAKNTVYLQMNSLKPEYTAVYYCAVDPHLYALRGAVYYWGQGTQVTVSS” was “low polyreactivity”. For the sequence “QVHLVQSGGGLVQAGGSLRISSAASGSTFSPYDMGRYRQAPGKEREMVAGITDGAITTYADSVKGSFTISRDNANNTVYLQMNSLKPEDTEVYYCAAFLWAKYHPGYYYWGQGTQETVSS”, the “polyreactivity (PSR sort gate)” value is given as “low polyreactivity”.

As for “QVHLVQTRGGLVQAGGSLRLSCAASGLTFTYYAMGWNRPEPGKERQLVSAISSSGSDTYYADSVKGRFTISRDYALNTVYFQMNSLKTEDTAVYYCAAVLTALSPDFEYEYWGQGTQVTVSS”, the “polyreactivity (PSR sort gate)” value was “low polyreactivity”. Next, “QVHRVESGGGLVQAGGCLRLSCAASGRTFARYVMGGYRQAPGKERELVAAINSGGTTYYADSVKGRFTISRDNAKNTVYLQMNSLKPEDTAVYYCNGRRGHYAYDYWGQGTQVTVSS”: “high polyreactivity”; “QVKHVESGGGLVQAGGSLRLSCAASGFTFSYYAMGWFRQAPGKERELVAAITSGGSTYYADYVKGRFTISRDNAKNTVYLQMNSLKPEDTAVYYCNADGWYYPTDDYWGHGTQVTVSS”: “low polyreactivity”. Next, “QVKLKESVGGLVQAGGSLRLSCAASGSISATGNMGWYRQAPGEERELVAAINFGSNTYYADSVKGRFTISRDNAKNTVYLQKSGLKPEDTPVYYCAVDGCYVGPYYYWGQGTQVTVSS”: “high polyreactivity”; “QVKLLDSGGGLVQAGGSLRLSCSASGFTFNNYAMVWYRQAPGKERELVAAISWAGGSTYYADSVKGRFTISRDNAKNTVYLQMNTLKPEDTAVYYCAKRIRYTTRPTYGFYYWGQGTQVTVSS”: “high polyreactivity”; “QVKLVDSAGGLVQAGVILRLRCAASGSIVRPNAMGWYSQATGKERELVAAITSSGTTNYADSVKVRFTISRDNAKNTVYLQMNSLKPEDTAVYYCAAERKDGGYGYGVWDYYPGENMDYWGQGTQVTVSS”: “low polyreactivity”. Consider “QVKLVDSGGGLVQAGGSVGLSCAASGRIFPWYTMGWYRQAPGKERELVAVISSGGRTHYADSVKGRFTISRDNAKNTVYLQMYSLNPEDTAVYDCAAESRYQRYDYWGQGTQVTVSS”, for which the “polyreactivity (PSR sort gate)” value is “high polyreactivity”.

Turning to “QVKLVESAGGLVQAGCSLRLSCAASGSIFLKNAKGWYRQSPGKERELVAGITTRGSTYYADSVKGRFTISRDNAKNTVYLQMNSLKPEDTAVYYCAKRDVGYQTRYFYWGQGTQVTVSS”, the “polyreactivity (PSR sort gate)” value is listed as “high polyreactivity”.

With “QVKLVESGGGLDQAGGSLRLSCAAYGSIFGDYVMGWYRQAPGKEMEFVAAISGSGGSTYYADSVKWRFTISRVNAKNTVYLQMNCLKPEDTAVYYCSTSGPQYYSRNLDYWGQGTQVTVSS”, the “polyreactivity (PSR sort gate)” value was “low polyreactivity”.

Consider “QVKLVESGGGLFQAGGSLRLSCADSGRTFYYYGMPWYIQETGKERELVAAINRGDSTKYADSVKGRFTISLDNAKNNVYLHMNSLKPEDTAVYYCNARLRCSFARFIYEYWRQGTQVTVSS”, for which the “polyreactivity (PSR sort gate)” value was “low polyreactivity”. Turning to “QVKLVESGGGLVHAGGSLRLICAASGFTFGEYAMVWSRQSPGKERELVAGISWSGGGTYYADSVKGRFTISRDNAKYTVYLQMNSLKPEDTAVYYCAAVLPSTSYKYDYWGQGTQVTVSS”, the “polyreactivity (PSR sort gate)” value is “low polyreactivity”. In the case of “QVKLVESGGGLVQAGCRLRLSCAASGFICGYNAMGWYRQAPGKERELVAAIDWSGTSTYYADSVKWRFTISRDNAKNTVYLQMNSLKPEDSAVYYCAADTSTWDHTRGYDYWGQGTQVTVSS”, the “polyreactivity (PSR sort gate)” value was “high polyreactivity”. The value for “QVKLVESGGGLVQAGGRLRLTCAASGSTISGYAMGWYRQAPGKERQLVATITGGGRTYYADSVKGRFTISRDNAKNTVYLQMNSLKPEDSAVYYFAVRGYHQYKYGYWGQGTQVTVSS” was “high polyreactivity”; that for “QVKLVESGGGLVQAGGSIRLSCAASGSIFWYYAMGWYRQAPGKERELVATITSGGSTSYADSVKGRFTISRDNAKNTVYLQMKSLKPEDTAVYYCAAARLFTTYDWGQGTQVTVSS” was “low polyreactivity”; that for “QVKLVESGGGLVQAGGSLRISCAASGLTFPKYAMGWYRQAPGKERELVAAITQRGGSTYYADSVKVRFTISRDNAKNTVYLEMYWLKREDTAVYYCNARRRDYNNRREFDYWGQGSQVTVSS” was “high polyreactivity”.

For “QVKLVESGGGLVQAGGSLRLICAASGRIFVPYAMGWNRQAPWKETELFAAISRSGGSTYYADSVKGRFTISRDNAKNTVYLQMNSLKTEETAVYYCAVYYRRYKEYGYNYWGQGTEVTVSS”, the “polyreactivity (PSR sort gate)” value is reported as “high polyreactivity”.

Take “QVKLVESGGGLVQAGGSLRLSCAASARIFAQYDMGWYRQEPGKEREFVAAISGGGSSKYYADSVKGRFTISRDNAKNTGYLQMNSLKPEDTAVYYCAAYGRYPSWYAPGNEYWGQGTQVTVSS”: the “polyreactivity (PSR sort gate)” value is “low polyreactivity”.

“QVKLVESGGGLVQAGGSLRLSCAASGFIFRGYAMGWYRQAPGKERELVAAINYSGGSTYYADSVKGRFTISRDYAKNTVYLQMNSAKPEYTAVYYCNALGLRYYEYDYWGQGTQVNVSS”: the “polyreactivity (PSR sort gate)” value is recorded as “low polyreactivity”. Take “QVKLVESGGGLVQAGGSLRLSCAASGFIFSKNAMGWYRQAPGKERELVAAISGRGGTTYYADSVKGRFTISRDNAKNTVYLQMNSLIPEDTAVYYCATDNSSHPYDYWGQGTQVTVSS”: the “polyreactivity (PSR sort gate)” value is “high polyreactivity”. Next, “QVKLVESGGGLVQAGGSLRLSCAASGFTFDKYAMGWSRPEPGKERELVATISRRGGSTYYADSVKGRFTISRDNAKNTVYLQMNSLKPEDTAVYYCAKVRYYYSPYREFDYCGQGTQVTVSS”: “high polyreactivity”.

Consider “QVKLVESGGGLVQAGGSLRLSCAASGRIFNWYAMGWYRQAPGKERELVARISSGDITSYADSVKGRFTISRDNAKNTVYLQMNSLKPEDTALYYCNDDGFFLNVSPYDYWGQGTQVTVSS”, for which the “polyreactivity (PSR sort gate)” value was “low polyreactivity”. The value for “QVKLVESGGGLVQAGGSLRLSCAASGRILGYYAMGWYRPAPGKERELVAAINRGGRTYYADSVKGRFTISRDNAKNTVYLEMYSLKPEDTAVYYCAAVLYNQWALVYWFGYNYWGQGTQVSVSS” was “high polyreactivity”; that for “QVKLVESGGGLVQAGGSLRLSCAASGSIFSMYTMGWYRQAPGKARELVAAIDRSGGSTYYADSVKGRFTISRDNAKNTVYLQMNSLKPEDTAVYYCATDSVYIYDPYWSSIIEYDYWGQGTQVTVSS” was “low polyreactivity”.

As to “QVKLVESGGGLVQAGGSLRLSCAASGSISLYYAMGWYRQAPGKERELVAAISDSGGDTYYADSVKGRFTISRDNAKITVYLQMNSLKPADTAVYYCATDTAYWLWVYALLEYWGQGTQVTVSS”, the “polyreactivity (PSR sort gate)” value is given as “low polyreactivity”.

As for “QVKLVESGGGLVQAGGSLRLSCAASGSTFAGTAMGWYRQAPGKEREMVAAISWNTGSTYADSVKGRFTISRDNAKNTVYLQMNSLKPEDTAVYYCAADRSHAYYRKNRVDYWGQGTQVTVSS”, the “polyreactivity (PSR sort gate)” value is listed as “low polyreactivity”. Next, “QVKLVESGGGLVQAGGSLRLSCAASGSTFPRYAMGWYRQAPGKEREFVAVIWSGGSTYYADSVKGRFTISRDNAKNTVYFQMNSLIPEDTAVYYCAAEYHTLSKYSGYATHDYWGQGTQVTVSS”: “low polyreactivity”; “QVKLVESGGGLVQAGGSLRLSCAASGSTFYAYVMGWYRQAPGKARELVAAISKGGGSTYYADSVKGRFTISRDNAKNTVYLQMNSLKPEDTAVYYSAAYASYSNYRKYNYWGQGTQVTVSS”: “high polyreactivity”. Next, “QVKLVESGGGLVQAGGSLRLSCAASGSTFYHNAIGWYRQAPGKERELVARITRGGSTDYADSVKGRFTISRDNAKNTVYLQMNSLKPEDTEVYYCAADIGHFERFYWGQGTQVTVSS”: “low polyreactivity”; “QVKLVESGGGLVQAGGSLRLSCAASGSTSRDNAMGWYRQAPGKERELVGAITVIDGTTYYADSVKGRFTISRDNAKNTVYLQMNSLKPEDTAVYYCAADTIWYEYYYWGQGTQVTLSS”: “low polyreactivity”. The value for “QVKLVESGGGLVQAGGSLRLSCAASGSTYWQYSMGWYRHAPGKEREFVAAISSRGGSTYYADSVKGRFTISRDNAKNTVYLQMNSLKPEDTAVYYFAAKNYFAFIRTYRYVHRPTYYYWGQGTQVTVSS” was “high polyreactivity”; that for “QVKLVESGGGLVQAGGSLRLSCADSGSIFYNNAMGWYRQAPGKERELVATIRRSGGSTYYADSVKGRFTISRDNAKNTVYLQMISLKPEDTAVDYCNAPPYLALVLIDYDYWGQGTQVTVSS” was “low polyreactivity”. As to “QVKLVESGGGLVQAGGSLRLSSAASGSTFDSNAMGWYRQEPGKERELVAAITRGGSTNYADSVKGRFTISRDNAKNTVYLQMNSLKPEDTAVYYCAAASETLGYATYGSGYDYWGQGTQVTVSS”, the “polyreactivity (PSR sort gate)” value was “low polyreactivity”.

For “QVKLVESGGGLVQAGGSLRLTCAASGRTFARYAMGWSRQEPGKERELVAAISRRGTSTYYADSVKGRFTISRDNAKNTVYLQMNSLKPEDTAVYYCAVDPYLGHYDYWGQGTQVTVSS”, the “polyreactivity (PSR sort gate)” value is “high polyreactivity”. The value for “QVKLVESGGGLVQSGGSLRLSCAASGSILDVNAMGWYRQAPGKERELVAAISDSGGSTYYADSVKGRFTISRDNAKNTVYLQMNSLKPEDTAVYYCATAYYYHGGYYYPYDDYWGQGTQVTVSS” was “low polyreactivity”.
